Data on six molecules can be found in patent publication US20190153061A1.

The target in this test is B-cell maturation antigen (BCMA) expressed on cells (human), Q02223. Kind of test: cell-based or functional assay.
B-cell maturation antigen (BCMA) expressed on cells (human), Q02223, sequence (Q02223 whole entry): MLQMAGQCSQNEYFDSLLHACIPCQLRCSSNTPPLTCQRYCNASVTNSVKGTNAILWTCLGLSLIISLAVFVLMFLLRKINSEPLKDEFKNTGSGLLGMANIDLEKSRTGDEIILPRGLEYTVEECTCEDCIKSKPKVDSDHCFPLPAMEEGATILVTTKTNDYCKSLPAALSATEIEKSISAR

B1: BCMA-12 CAR (139111) (protein)
chain: EVQLLESGGGLVQPGGSLRLSCAVSGFALSNHGMSWVRRAPGKGLEWVSGIVYSGSTYYAASVKGRFTISRDNSRNTLYLQMNSLRPEDTAIYYCSAHGGESDVWGQGTTVTVSSASGGGGSGGRASGGGGSDIVMTQTPLSLSVTPGQPASISCKSSQSLLRNDGKTPLYWYLQKAGQPPQLLIYEVSNRFSGVPDRFSGSGSGTDFTLKISRVEAEDVGAYYCMQNIQFPSFGGGTKLEIKTTTPAPRPPTPAPTIASQPLSLRPEACRPAAGGAVHTRGLDFACDIYIWAPLAGTCGVLLLSLVITLYCKRGRKKLLYIFKQPFMRPVQTTQEEDGCSCRFPEEEEGGCELRVKFSRSADAPAYKQGQNQLYNELNLGRREEYDVLDKRRGRDPEMGGKPRRKNPQEGLYNELQKDKMAEAYSEIGMKGERRRGKGHDGLYQGLSTATKDTYDALHMQALPPR
In the case of B1, the Cell killing EC50; KMS11-luc was 0.22 not printed; the JNL binding assay, ratio to K562; K562-BCMA was determined as 3.17; the JNL binding assay, ratio to K562; NCI-H929 was 2.78; the JNL binding assay, ratio to K562; RPMI 8226 amounted to 3.36. In addition, the Proliferation, CD3 ratio to no target; K562-BCMA is 2.9; the Proliferation, CD3 ratio to no target; KMS11-luc stood at 2.76; the Proliferation, CD3 ratio to no target; NCI-H929 was 2.98; the Proliferation, CD3 ratio to no target; RPMI 8226 was determined as 3.27. Also, the Proliferation, CD4 ratio to no target; K562-BCMA came out at 3.42; the Proliferation, CD4 ratio to no target; KMS11-luc was found to be 2.94; the Proliferation, CD4 ratio to no target; NCI-H929 was 3.41; the Proliferation, CD4 ratio to no target; RPMI 8226 came to 3.66. Moreover, the Proliferation, CD8 ratio to no target; K562-BCMA was determined as 1.51; the Proliferation, CD8 ratio to no target; KMS11-luc turned out to be 2.11; the Proliferation, CD8 ratio to no target; NCI-H929 is 1.76; the Proliferation, CD8 ratio to no target; RPMI 8226 was 2.12.

B2: BCMA-14 CAR (139113) (protein)
chain: EVQLVETGGGLVQPGGSLRLSCAVSGFALSNHGMSWVRRAPGKGLEWVSGIVYSGSTYYAASVKGRFTISRDNSRNTLYLQMNSLRPEDTAIYYCSAHGGESDVWGQGTTVTVSSASGGGGSGGRASGGGGSETTLTQSPATLSVSPGERATLSCRASQSVGSNLAWYQQKPGQGPRLLIYGASTRATGIPARFSGSGSGTEFTLTISSLQPEDFAVYYCQQYNDWLPVTFGQGTKVEIKTTTPAPRPPTPAPTIASQPLSLRPEACRPAAGGAVHTRGLDFACDIYIWAPLAGTCGVLLLSLVITLYCKRGRKKLLYIFKQPFMRPVQTTQEEDGCSCRFPEEEEGGCELRVKFSRSADAPAYKQGQNQLYNELNLGRREEYDVLDKRRGRDPEMGGKPRRKNPQEGLYNELQKDKMAEAYSEIGMKGERRRGKGHDGLYQGLSTATKDTYDALHMQALPPR
On to B2, for which the Cell killing EC50; KMS11-luc was determined as 0.12 not printed; the JNL binding assay, ratio to K562; K562-BCMA amounted to 2.81; the JNL binding assay, ratio to K562; NCI-H929 came out at 2.65; the JNL binding assay, ratio to K562; RPMI 8226 was 3.31. For the same molecule, the Proliferation, CD3 ratio to no target; K562-BCMA was determined as 4.12; the Proliferation, CD3 ratio to no target; KMS11-luc was determined as 3.42; the Proliferation, CD3 ratio to no target; NCI-H929 was found to be 3.86; the Proliferation, CD3 ratio to no target; RPMI 8226 turned out to be 3.93. For the same molecule, the Proliferation, CD4 ratio to no target; K562-BCMA came to 5.73; the Proliferation, CD4 ratio to no target; KMS11-luc was 3.97; the Proliferation, CD4 ratio to no target; NCI-H929 came out at 5.07; the Proliferation, CD4 ratio to no target; RPMI 8226 worked out at 4.84. Also, the Proliferation, CD8 ratio to no target; K562-BCMA worked out at 2.65; the Proliferation, CD8 ratio to no target; KMS11-luc amounted to 2.83; the Proliferation, CD8 ratio to no target; NCI-H929 stood at 2.73; the Proliferation, CD8 ratio to no target; RPMI 8226 worked out at 3.03.

B3: BCMA-8 CAR (139107) (protein)
chain: EVQLVETGGGVVQPGGSLRLSCAVSGFALSNHGMSWVRRAPGKGLEWVSGIVYSGSTYYAASVKGRFTISRDNSRNTLYLQMNSLRPEDTAIYYCSAHGGESDVWGQGTTVTVSSASGGGGSGGRASGGGGSEIVLTQSPGTLSLSPGERATLSCRASQSVGSTNLAWYQQKPGQAPRLLIYDASNRATGIPDRFSGGGSGTDFTLTISRLEPEDFAVYYCQQYGSSPPWTFGQGTKVEIKTTTPAPRPPTPAPTIASQPLSLRPEACRPAAGGAVHTRGLDFACDIYIWAPLAGTCGVLLLSLVITLYCKRGRKKLLYIFKQPFMRPVQTTQEEDGCSCRFPEEEEGGCELRVKFSRSADAPAYKQGQNQLYNELNLGRREEYDVLDKRRGRDPEMGGKPRRKNPQEGLYNELQKDKMAEAYSEIGMKGERRRGKGHDGLYQGLSTATKDTYDALHMQALPPR
B3: the Cell killing EC50; KMS11-luc was 0.14 not printed; the JNL binding assay, ratio to K562; K562-BCMA amounted to 3.17; the JNL binding assay, ratio to K562; NCI-H929 was determined as 2.67; the JNL binding assay, ratio to K562; RPMI 8226 is 3.87. In addition, the Proliferation, CD3 ratio to no target; K562-BCMA stood at 2.55; the Proliferation, CD3 ratio to no target; KMS11-luc came to 2.46; the Proliferation, CD3 ratio to no target; NCI-H929 is 2.17; the Proliferation, CD3 ratio to no target; RPMI 8226 amounted to 2.56. The Proliferation, CD4 ratio to no target; K562-BCMA worked out at 3.59; the Proliferation, CD4 ratio to no target; KMS11-luc came out at 3.11; the Proliferation, CD4 ratio to no target; NCI-H929 was found to be 2.98; the Proliferation, CD4 ratio to no target; RPMI 8226 stood at 3.33. For the same molecule, the Proliferation, CD8 ratio to no target; K562-BCMA amounted to 1.59; the Proliferation, CD8 ratio to no target; KMS11-luc was found to be 1.83; the Proliferation, CD8 ratio to no target; NCI-H929 turned out to be 1.41; the Proliferation, CD8 ratio to no target; RPMI 8226 is 1.81.

B4: BCMA-9 CAR (139108) (protein)
chain: QVQLVESGGGLVKPGGSLRLSCAASGFTFSDYYMSWIRQAPGKGLEWVSYISSSGSTIYYADSVKGRFTISRDNAKNSLYLQMNSLRAEDTAVYYCARESGDGMDVWGQGTTVTVSSASGGGGSGGRASGGGGSDIQMTQSPSSLSASVGDRVTITCRASQSISSYLNWYQQKPGKAPKLLIYAASSLQSGVPSRFSGSGSGTDFTLTISSLQPEDFATYYCQQSYTLAFGQGTKVDIKTTTPAPRPPTPAPTIASQPLSLRPEACRPAAGGAVHTRGLDFACDIYIWAPLAGTCGVLLLSLVITLYCKRGRKKLLYIFKQPFMRPVQTTQEEDGCSCRFPEEEEGGCELRVKFSRSADAPAYKQGQNQLYNELNLGRREEYDVLDKRRGRDPEMGGKPRRKNPQEGLYNELQKDKMAEAYSEIGMKGERRRGKGHDGLYQGLSTATKDTYDALHMQALPPR
With B4, the Cell killing EC50; KMS11-luc stood at 0.68 not printed; the JNL binding assay, ratio to K562; K562-BCMA worked out at 1.59; the JNL binding assay, ratio to K562; NCI-H929 was found to be 1.99; the JNL binding assay, ratio to K562; RPMI 8226 is 1.54. Also, the Proliferation, CD3 ratio to no target; K562-BCMA was determined as 1.51; the Proliferation, CD3 ratio to no target; KMS11-luc is 1.66; the Proliferation, CD3 ratio to no target; NCI-H929 is 4.63; the Proliferation, CD3 ratio to no target; RPMI 8226 was 2.5. Further, the Proliferation, CD4 ratio to no target; K562-BCMA came out at 1.59; the Proliferation, CD4 ratio to no target; KMS11-luc was 1.49; the Proliferation, CD4 ratio to no target; NCI-H929 amounted to 4.45; the Proliferation, CD4 ratio to no target; RPMI 8226 was 2.24. Besides, the Proliferation, CD8 ratio to no target; K562-BCMA was 1.43; the Proliferation, CD8 ratio to no target; KMS11-luc turned out to be 1.83; the Proliferation, CD8 ratio to no target; NCI-H929 is 4.79; the Proliferation, CD8 ratio to no target; RPMI 8226 turned out to be 2.76.

B5: BCMA-15 CAR (139114) (protein)
chain: EVQLVESGGGLVQPGGSLRLSCAVSGFALSNHGMSWVRRAPGKGLEWVSGIVYSGSTYYAASVKGRFTISRDNSRNTLYLQMNSLRPEDTAIYYCSAHGGESDVWGQGTTVTVSSASGGGGSGGRASGGGGSEIVLTQSPGTLSLSPGERATLSCRASQSIGSSSLAWYQQKPGQAPRLLMYGASSRASGIPDRFSGSGSGTDFTLTISRLEPEDFAVYYCQQYAGSPPFTFGQGTKVEIKTTTPAPRPPTPAPTIASQPLSLRPEACRPAAGGAVHTRGLDFACDIYIWAPLAGTCGVLLLSLVITLYCKRGRKKLLYIFKQPFMRPVQTTQEEDGCSCRFPEEEEGGCELRVKFSRSADAPAYKQGQNQLYNELNLGRREEYDVLDKRRGRDPEMGGKPRRKNPQEGLYNELQKDKMAEAYSEIGMKGERRRGKGHDGLYQGLSTATKDTYDALHMQALPPR
Take B5: the Cell killing EC50; KMS11-luc came to 0.11 not printed; the JNL binding assay, ratio to K562; K562-BCMA worked out at 2.91; the JNL binding assay, ratio to K562; NCI-H929 is 2.79; the JNL binding assay, ratio to K562; RPMI 8226 amounted to 3.49. The Proliferation, CD3 ratio to no target; K562-BCMA was found to be 3.94; the Proliferation, CD3 ratio to no target; KMS11-luc was 3.51; the Proliferation, CD3 ratio to no target; NCI-H929 worked out at 4.08; the Proliferation, CD3 ratio to no target; RPMI 8226 was 3.73. Besides, the Proliferation, CD4 ratio to no target; K562-BCMA is 4.87; the Proliferation, CD4 ratio to no target; KMS11-luc was 3.82; the Proliferation, CD4 ratio to no target; NCI-H929 was determined as 4.82; the Proliferation, CD4 ratio to no target; RPMI 8226 was determined as 4.24. Further, the Proliferation, CD8 ratio to no target; K562-BCMA was determined as 1.89; the Proliferation, CD8 ratio to no target; KMS11-luc was 2.73; the Proliferation, CD8 ratio to no target; NCI-H929 was determined as 2.42; the Proliferation, CD8 ratio to no target; RPMI 8226 amounted to 2.51.

B6: BCMA-13 CAR (139112) (protein)
chain: QVQLVESGGGLVQPGGSLRLSCAVSGFALSNHGMSWVRRAPGKGLEWVSGIVYSGSTYYAASVKGRFTISRDNSRNTLYLQMNSLRPEDTAIYYCSAHGGESDVWGQGTTVTVSSASGGGGSGGRASGGGGSDIRLTQSPSPLSASVGDRVTITCQASEDINKFLNWYHQTPGKAPKLLIYDASTLQTGVPSRFSGSGSGTDFTLTINSLQPEDIGTYYCQQYESLPLTFGGGTKVEIKTTTPAPRPPTPAPTIASQPLSLRPEACRPAAGGAVHTRGLDFACDIYIWAPLAGTCGVLLLSLVITLYCKRGRKKLLYIFKQPFMRPVQTTQEEDGCSCRFPEEEEGGCELRVKFSRSADAPAYKQGQNQLYNELNLGRREEYDVLDKRRGRDPEMGGKPRRKNPQEGLYNELQKDKMAEAYSEIGMKGERRRGKGHDGLYQGLSTATKDTYDALHMQALPPR
As for B6, the Cell killing EC50; KMS11-luc is 0.11 not printed; the JNL binding assay, ratio to K562; K562-BCMA amounted to 3.74; the JNL binding assay, ratio to K562; NCI-H929 is 2.68; the JNL binding assay, ratio to K562; RPMI 8226 was 3.66. The Proliferation, CD3 ratio to no target; K562-BCMA worked out at 3.47; the Proliferation, CD3 ratio to no target; KMS11-luc turned out to be 3.2; the Proliferation, CD3 ratio to no target; NCI-H929 worked out at 3.46; the Proliferation, CD3 ratio to no target; RPMI 8226 was found to be 3.48. In addition, the Proliferation, CD4 ratio to no target; K562-BCMA came to 5.4; the Proliferation, CD4 ratio to no target; KMS11-luc is 3.84; the Proliferation, CD4 ratio to no target; NCI-H929 came out at 5.05; the Proliferation, CD4 ratio to no target; RPMI 8226 came to 4.44. Also, the Proliferation, CD8 ratio to no target; K562-BCMA is 2.34; the Proliferation, CD8 ratio to no target; KMS11-luc stood at 2.79; the Proliferation, CD8 ratio to no target; NCI-H929 came out at 2.53; the Proliferation, CD8 ratio to no target; RPMI 8226 came out at 2.86.
